Assay results from ChEMBL document CHEMBL1137638, “TEM-158 (CMT-9), a new member of the CMT-type extended-spectrum beta-lactamases” (Antimicrob Agents Chemother, 2007).

What was measured:
[1] = substrate: CC(C)(O/N=C(\C(=O)N[C@@H]1C(=O)N2C(C(=O)[O-])=C(C[n+]3ccccc3)CS[C@H]12)c1csc(N)n1)C(=O)O; conditions: Escherichia coli; DH5alpha CL1179
[2] = substrate: CC(=O)OCC1=C(C(=O)O)N2C(=O)[C@@H](NC(=O)Cc3cccs3)[C@H]2SC1; test: (§1) Activity of Escherichia coli DH5alpha beta-lactamase TEM-1 by microacidimetric method
[3] = substrate: CC(C)(O/N=C(\C(=O)N[C@@H]1C(=O)N2C(C(=O)[O-])=C(C[n+]3ccccc3)CS[C@H]12)c1csc(N)n1)C(=O)O; test: as §1
[4] = substrate: CC1(C)S[C@@H]2[C@H](NC(=O)Cc3ccccc3)C(=O)N2[C@H]1C(=O)O; test: as §1
[5] = substrate: CC1(C)S[C@@H]2[C@H](NC(=O)[C@H](C(=O)O)c3ccsc3)C(=O)N2[C@H]1C(=O)O; test: as §1
[6] = substrate: CC1(C)S[C@@H]2[C@H](NC(=O)[C@H](N)c3ccc(O)cc3)C(=O)N2[C@H]1C(=O)O; test: as §1
[7] = substrate: CCN1CCN(C(=O)N[C@@H](C(=O)N[C@@H]2C(=O)N3[C@@H]2SC(C)(C)[C@@H]3C(=O)O)c2ccccc2)C(=O)C1=O; test: as §1
[8] = substrate: CO/N=C(\C(=O)N[C@@H]1C(=O)N2C(C(=O)O)=C(COC(C)=O)CS[C@H]12)c1csc(N)n1; test: as §1
[9] = substrate: CC(=O)OCC1=C(C(=O)O)N2C(=O)[C@@H](NC(=O)Cc3cccs3)[C@H]2SC1; test: (§2) Activity of Escherichia coli DH5alpha beta-lactamase TEM-158 by microacidimetric method
[10] = substrate: CC(C)(O/N=C(\C(=O)N[C@@H]1C(=O)N2C(C(=O)[O-])=C(C[n+]3ccccc3)CS[C@H]12)c1csc(N)n1)C(=O)O; test: as §2
[11] = substrate: CC1(C)S[C@@H]2[C@H](NC(=O)Cc3ccccc3)C(=O)N2[C@H]1C(=O)O; test: as §2
[12] = substrate: CC1(C)S[C@@H]2[C@H](NC(=O)[C@H](C(=O)O)c3ccsc3)C(=O)N2[C@H]1C(=O)O; test: as §2
[13] = substrate: CC1(C)S[C@@H]2[C@H](NC(=O)[C@H](N)c3ccc(O)cc3)C(=O)N2[C@H]1C(=O)O; test: as §2
[14] = substrate: CCN1CCN(C(=O)N[C@@H](C(=O)N[C@@H]2C(=O)N3[C@@H]2SC(C)(C)[C@@H]3C(=O)O)c2ccccc2)C(=O)C1=O; test: as §2
[15] = substrate: CC(C)(O/N=C(\C(=O)N[C@@H]1C(=O)N2C(C(=O)[O-])=C(C[n+]3ccccc3)CS[C@H]12)c1csc(N)n1)C(=O)O; conditions: Escherichia coli; TO799

B1: Beta lactamase TEM-152 (Escherichia coli), Q09Q13 (protein)
chain: MSIQHFRVALIPFFAAFCLPVFAHPETLVKVKDAEDQLGARVGYIELDLNSGKILESFRPEERFPMVSTFKVLLCGAVLSRVDAGQEQLGRRIHYSQNDLVEYSPVTEKHLTDGMTVRELCSAAITMSDNTAANLLLTTIGGPKELTAFLHNMGDHVTRLDHWEPELNEAIPNDERDTTMPAAMATTLRKLLTGELLTLASRQQLIDWMEADKVAGPLLRSALPAGWFIADKSGAGKRGSRGIIAALGPDGKPSRIVVIYTTGSQATMDERDRQIAEIGASLIKHW
- kcat [1]: 40 s⁻¹

B2: Beta-lactamase TEM (Escherichia coli), P62593 (protein)
chain: MSIQHFRVALIPFFAAFCLPVFAHPETLVKVKDAEDQLGARVGYIELDLNSGKILESFRPEERFPMMSTFKVLLCGAVLSRVDAGQEQLGRRIHYSQNDLVEYSPVTEKHLTDGMTVRELCSAAITMSDNTAANLLLTTIGGPKELTAFLHNMGDHVTRLDRWEPELNEAIPNDERDTTMPAAMATTLRKLLTGELLTLASRQQLIDWMEADKVAGPLLRSALPAGWFIADKSGAGERGSRGIIAALGPDGKPSRIVVIYTTGSQATMDERNRQIAEIGASLIKHW
- kcat [2]: 165 s⁻¹
- kcat [3]: < 0.1 s⁻¹
- Km [4]: 34 µM
- kcat [4]: 1500 s⁻¹
- Km [5]: 36 µM
- kcat [5]: 135 s⁻¹
- Km [6]: 15 µM
- kcat [6]: 1120 s⁻¹
- Km [7]: 55 µM
- kcat [7]: 1250 s⁻¹
- kcat [8]: < 0.1 s⁻¹

B3: CMT-type beta lactamase (Escherichia coli), A5HJU3 (protein)
chain: MSIQHFRVALIPFFAAFCLPVFAHPETLVKVKDAEDQLGARVGYIELDLNSGKILESFRPEERFPMLSTFKVLLCGAVLSRVDAGQEQLGRRIHYSQNDLVEYSPVTEKHLTDGMTVRELCSAAITMSDNTAANLLLTTIGGPKELTAFLHNMGDHVTRLDSWEPELNEAIPNDERDTTMPAAMATTLRKLLTGELLTLASRQQLIDWMEADKVAGPLLRSALPAGWFIADKSGAGERGSRGIIAALGPDGKPSRIVVIYTTGSQATMDERDRQIAEIGASLIKHW
- Km [9]: 170 µM
- kcat [9]: 0.26 s⁻¹
- kcat [10]: 1.7 s⁻¹
- Km [11]: 38.1 µM
- kcat [11]: 18.5 s⁻¹
- Km [12]: 143 µM
- kcat [12]: 4.2 s⁻¹
- Km [13]: 24.8 µM
- kcat [13]: 14.4 s⁻¹
- Km [14]: 46 µM
- kcat [14]: 17.1 s⁻¹

B4: Beta-lactamase TEM-125 (Escherichia coli), Q6GWS8 (protein)
chain: MSIQHFRVALIPFLAAFCLPVFAHPETLVKVKDAEDQLGARVGYIELDLNSGKILESFRPEERFPMLSTFKVLLCGAVLSRVDAGQEQLGRRIHYSQNDLVEYSPVTEKHLTDGMTVRELCSAAITMSDNTAANLLLTTIGGPKELTAFLHNMGDHVTRLDSREPELNEAIPNDERDTTMPAAMATTLRKLLTGELLTLASRQQLIDWMEADKVAGPLLRSALPAGWFIADKSGAGERGSRGIIAALGPDGKPSRIVVIYTTGSQATMDERDRQIAEIGASLIKHW
- kcat [15]: 3.7 s⁻¹
